These results are taken from patent US20190367620A1 (Merck KGaA, published 2019).

Holding throughout (test): SPR; free energy change relative to wild-type D2
On the technique in general: In SPR one partner is held on a chip, and binding of the other changes the refractive index at the surface.

Test [1] addresses T1, FGFR1 D2 point mutant K65A (human, UniProt P11362 22-254).
T1 chain: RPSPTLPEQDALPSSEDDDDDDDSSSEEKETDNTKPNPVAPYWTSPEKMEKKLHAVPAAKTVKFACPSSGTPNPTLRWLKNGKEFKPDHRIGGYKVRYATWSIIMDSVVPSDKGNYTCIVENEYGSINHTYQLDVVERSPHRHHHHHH
On the procedure: (§1) Binding affinities of anti-FGFR1 antibodies to FGFR1 were measured by Surface Plasmon Resonance (SPR) using a GE Healthcare BIAcore 4000 instrument as follows. Goat anti-human Fc antibody (Jackson ImmunoResearch Laboratories #109-005-098) was first immobilized on BIAcore carboxymethylated dextran CM5 chip using direct coupling to free amino groups following the procedure described by the manufacturer. Antibodies were then captured on the CM5 biosensor chip to achieve approximately 200 response units (RU). Binding measurements were performed using the running HBS-EP+ buffer. A 2-fold dilution series of His-tagged FGFR1 proteins were injected at a flow rate of 30 μl/min at 25° C. Association rates (kₒₙ, per mol/s) and dissociation rates (koff, per s) were calculated using a simple 1:1 Langmuir binding model (Biacore 4000 Evaluation Software). The equilibrium dissociation constant (KD, mol) was calculated as the ratio of koff/kₒₙ.
(§2) To obtain a finer, residue-level mapping of the epitope and to complement the HD exchange data, molecular modelling and manual inspection of the crystal structure of FGFR1 [(Beenken et al. 2012); PDB record 3OJV] was used to select solvent exposed residues within and around the epitope identified by HD exchange. The selected residues were mutated either to alanine (large to small) or to glycine if the selected residue was alanine. In total 35 point mutants were designed, expressed and purified in HEK cells, and tested for binding to mAb #A08 using surface plasmon resonance as described in Example 1.8. The affinity of the antibody for wild-type and each mutant was determined and used to calculate the contribution of each epitope residue to the binding energy.
(§3) Variant were compared to wild-type D2. The change in the Gibbs free energy of binding of mutant relative to the wild-type D2 construct (ΔΔGₘᵤₜ) was derived from the ratio of the wild-type and mutant KD.

In test [2] the target is T2, FGFR1 D2 point mutant I91A (human, UniProt P11362 22-254).
T2 chain: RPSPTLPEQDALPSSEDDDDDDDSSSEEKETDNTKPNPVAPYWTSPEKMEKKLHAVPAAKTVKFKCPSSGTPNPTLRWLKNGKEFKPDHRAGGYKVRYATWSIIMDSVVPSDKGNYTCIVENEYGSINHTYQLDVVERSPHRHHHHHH
As for the experimental part: as §1, §2, §3

The target in test [3] is T3, FGFR1 D2 point mutant D106A (human, UniProt P11362 22-254).
T3 chain: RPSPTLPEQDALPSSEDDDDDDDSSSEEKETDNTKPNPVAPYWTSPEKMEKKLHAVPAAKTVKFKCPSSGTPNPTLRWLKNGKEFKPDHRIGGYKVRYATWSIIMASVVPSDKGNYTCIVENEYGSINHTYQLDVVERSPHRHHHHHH
As for the experimental part: as §1, §2, §3

For test [4], the target named is T4, FGFR1 D2 point mutant H89A (human, UniProt P11362 22-254).
T4 chain: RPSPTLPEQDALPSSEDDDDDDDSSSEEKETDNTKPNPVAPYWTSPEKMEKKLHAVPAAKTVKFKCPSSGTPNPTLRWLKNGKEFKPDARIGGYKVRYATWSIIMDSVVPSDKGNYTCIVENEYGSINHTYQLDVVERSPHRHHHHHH
On the procedure: as §1, §2, §3

In test [5] the target is T5, FGFR1 D2 point mutant K52A (human, UniProt P11362 22-254).
T5 chain: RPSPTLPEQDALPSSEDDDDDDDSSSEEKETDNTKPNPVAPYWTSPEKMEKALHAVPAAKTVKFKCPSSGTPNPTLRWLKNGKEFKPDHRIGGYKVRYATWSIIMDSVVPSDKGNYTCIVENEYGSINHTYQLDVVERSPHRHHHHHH
On the procedure: as §1, §2, §3

The target in test [6] is T6, FGFR1 D2 point mutant Y94A (human, UniProt P11362 22-254).
T6 construct: Uncharacteristic melting curve
T6 chain: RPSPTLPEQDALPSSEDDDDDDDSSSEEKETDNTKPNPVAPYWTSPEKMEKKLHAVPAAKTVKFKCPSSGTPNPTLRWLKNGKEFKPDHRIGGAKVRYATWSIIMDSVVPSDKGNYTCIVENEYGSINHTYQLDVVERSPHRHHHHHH
As for the experimental part: as §1, §2, §3

A further test has as its target T7, Human FGFR1 D2-His6 (human, UniProt P11362 22-254).
T7 construct: also called D2 domain; F3FR1c-D2
T7 sequence: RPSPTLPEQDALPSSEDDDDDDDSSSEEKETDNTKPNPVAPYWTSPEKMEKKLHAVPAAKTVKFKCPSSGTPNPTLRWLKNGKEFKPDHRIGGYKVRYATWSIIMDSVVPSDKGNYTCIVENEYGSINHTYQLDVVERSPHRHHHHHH
As for the experimental part: as §1, §2, §3

The target in test [7] is T8, FGFR1 D2 point mutant E47A (human, UniProt P11362 22-254).
T8 chain: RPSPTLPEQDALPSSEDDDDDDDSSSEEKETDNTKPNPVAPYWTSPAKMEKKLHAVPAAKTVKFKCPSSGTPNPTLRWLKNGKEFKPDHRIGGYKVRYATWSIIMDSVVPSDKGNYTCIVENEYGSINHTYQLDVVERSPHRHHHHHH
As for the experimental part:
as §1, §2, §3

In test [8] the target is T9, FGFR1 D2 point mutant I104A (human, UniProt P11362 22-254).
T9 chain: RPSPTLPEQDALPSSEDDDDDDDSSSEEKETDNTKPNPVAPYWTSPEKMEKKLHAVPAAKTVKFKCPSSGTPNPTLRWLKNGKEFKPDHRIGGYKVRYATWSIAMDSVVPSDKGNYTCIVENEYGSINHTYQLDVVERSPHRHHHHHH
On the procedure:
as §1, §2, §3

Test [9] has as its target T10, FGFR1 D2 point mutant L53A (human, UniProt P11362 22-254).
T10 chain: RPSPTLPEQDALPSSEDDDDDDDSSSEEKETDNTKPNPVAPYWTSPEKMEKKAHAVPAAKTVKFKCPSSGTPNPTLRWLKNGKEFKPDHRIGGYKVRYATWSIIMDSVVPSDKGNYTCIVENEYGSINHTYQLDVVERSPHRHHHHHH
On the procedure:
as §1, §2, §3

B1: mAb #A08 (antibody, V domains shown)
VH: EVQLQESGPGLVKPSGTLSLTCAVSGGSISSNNWWSWVRQPPGKGLEWIGEIYHSGSTSYNPSLKSRVTISVDKSKNQFSLKLNSVTAADTAVYYCARGTDWFDPWGQGTLVTVSS
VL: QAVLTQPPSVSVAPGQTARITCGGNNIGSESVHWYQQKPGQAPVLVVYDDSDRPSGIPERFSGSNSGNTATLTISRVEAGDEADYYCQVWDSTSDHRVFGGGTKLTVL
notes: Only variable domains are tied to the name mAb #A08 (hit); also called #A08 hit; mAb #08
Consider B1, for which the ΔΔGmut is -0.04 kcal/mol in [1]; 0 kcal/mol in [2]; 1.92 kcal/mol in [3]; -0.02 kcal/mol in [4]; 0.11 kcal/mol in [5]; 0.96 kcal/mol in test [6]. The ΔΔGmut in the test with Human FGFR1 D2-His6 stood at 0 kcal/mol; in [7], 0.17 kcal/mol; in test [8], 0.93 kcal/mol; in test [9] it was 0.25 kcal/mol.
